Data from the supplement of paper PMC10567573.

B1: PDZK1 (parent)
chain: QKEQGLSDNILSPVMNGGVQTWTQ

Variants of: B1
Test: protein stability index of a GFP-peptide fusion (GPS, HEK-293T) (PSI 1-6); higher = more stable
Settings: c terminus: a fixed tail appended
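Further: lentivirally expressed fusions sorted by FACS into six bins by GFP to DsRed ratio, PSI derived from sequencing read proportions per bin multiplied by bin number.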

Point of comparison: G18K, protein stability index 1.53. Against it:
- V14G — lower, 1.5
- V14P — higher, 2.47
- V14A — higher, 3.29
- V14H — higher, 2.46
- V14K — higher, 2.54
- V14C — higher, 3.74
- V14Y — higher, 1.94
- V14E — higher, 2.78
- V14N — higher, 2.77
- V14I — higher, 2.4
- V14S — higher, 2.91
- V14Q — higher, 2.9
- V14M — higher, 2.65
- V14R — higher, 2.64
- V14T — higher, 2.93
- S12D — higher, 3.84
- S12P — higher, 3.76
- S12H — higher, 1.74
- S12I — higher, 3.58
- S12W — higher, 1.95
- S12M — higher, 2.22
- S12K — higher, 2.18
- S12F — higher, 2.76
- S12A — higher, 2.58
- S12T — higher, 2.36
- S12Y — higher, 2.83
- S12N — higher, 3.27
- S12G — higher, 3.21
- L11I — higher, 1.89
- L11A — higher, 3.47
- L11K — higher, 1.64
- L11W — higher, 2.33
- L11Y — higher, 2.5
- L11P — higher, 2.48
- L11H — higher, 2.75
- L11R — higher, 2.73
- L11C — higher, 2.63
- L11F — higher, 2.13
- L11E — higher, 3.97
- L11Q — higher, 2
- L11V — higher, 3.62
- L11M — higher, 3.25
- N16K — lower, 1.49
- N16I — higher, 2.89
- N16D — higher, 3.71
- N16F — higher, 2.61
- N16P — higher, 2.12
- N16E — higher, 3.41
- N16R — higher, 2.34
- N16Y — higher, 2.45
- N16S — higher, 2.81
- N16H — higher, 2.81
- N16C — higher, 2.75
- N16L — higher, 2.47
- N16Q — higher, 1.72
- P13I — higher, 1.59
- P13T — higher, 2.34
- P13K — higher, 2.47
- P13H — higher, 1.96
- P13R — higher, 2.09
- P13A — higher, 2.06
- P13Q — higher, 2.5
- P13N — higher, 3.05
- P13F — higher, 1.56
- P13V — higher, 2.41
- P13Y — higher, 1.9
- P13C — higher, 1.87
- P13S — higher, 2.37
- G18F — higher, 2.45
- G18H — higher, 2.62
- G18S — higher, 2.65
- G18P — higher, 3.46
- G18D — higher, 3.35
- G18A — higher, 3.46
- G18M — higher, 2.58
- G18W — higher, 2.33
- G18E — higher, 2.56
- G18L — higher, 2.58
- G18C — higher, 2.54
- G18R — higher, 1.84
- G18V — higher, 2.47
- G18N — higher, 2.67
- G18Y — higher, 2.45
- G18I — higher, 2.61
- W22D — higher, 4.78
- W22F — higher, 3.97
- W22A — higher, 4.41
- W22E — higher, 4.3
- W22C — higher, 4.8
- T21Q — higher, 3.55
- T21L — higher, 2.68
- T21C — higher, 2.66
- T21A — higher, 3.61
- T21D — higher, 4.85
- T21N — higher, 3.65
- T21M — higher, 3.63
- T21P — higher, 3.74
- T21K — higher, 3.46
- T21F — higher, 2.75
- T21R — higher, 3.23
- T21W — higher, 2.82
- T21E — higher, 3.71
- V19E — higher, 3.7
- V19A — higher, 2.99
- V19N — higher, 2.6
- V19M — higher, 1.9
- V19P — higher, 3.44
- V19F — higher, 2.42
- V19G — higher, 2.9
- V19R — higher, 1.85
- V19H — higher, 2.58
- V19Y — higher, 1.86
- V19D — higher, 4.3
- V19T — higher, 3.09
- V19I — higher, 2.17
- V19K — higher, 2.16
- Q20T — higher, 3
- Q20P — higher, 3.07
- Q20G — higher, 3.02
- Q20D — higher, 3.29
- Q20F — higher, 2.68
- Q20E — higher, 1.58
- Q20I — higher, 2.49
- Q20C — higher, 2.16
- Q20N — higher, 3.73
- Q20S — higher, 2.88
- Q20K — higher, 3.8
- Q20Y — higher, 2.68
- Q20W — higher, 3.36
- Q20V — higher, 2.67
- Q20L — higher, 2.14
- Q20A — higher, 3.69
- G17T — higher, 2.25
- G17V — higher, 3.6
- G17I — higher, 3.36
- G17Y — higher, 2.5
- G17W — higher, 1.85
- G17S — higher, 3.31
- G17R — higher, 2.04
- G17F — higher, 2.19
- G17E — higher, 3.27
- G17H — higher, 1.91
- G17L — higher, 2.8
- G17M — higher, 2.36
- G17K — higher, 2.13
- G17A — higher, 3.96
- I10K — higher, 3.02
- I10R — higher, 2.35
- I10V — higher, 2.56
- I10M — higher, 2.67
- I10N — higher, 3.43
- I10Q — higher, 3.34
- I10Y — higher, 2.6
- M15C — higher, 1.97
- M15D — higher, 3.02
- M15F — higher, 1.87
- M15N — higher, 2.85
- M15Q — higher, 2.46
- M15R — higher, 2.24
- M15H — higher, 2.51
- M15I — higher, 2.79
- M15T — higher, 2.97
- M15Y — higher, 2.44
- M15A — higher, 1.84
- M15E — higher, 3.69
- M15S — higher, 2.21
